For the assay, the target named is T1, FLAG-tagged murine CHL2 polypeptide (mCHL2-FLAG) (murine, UniProt Q8VEA6 27-426).
T1 construct: also called murine CHL2-FLAG; FLAG-tagged mCHL2 protein
T1 sequence: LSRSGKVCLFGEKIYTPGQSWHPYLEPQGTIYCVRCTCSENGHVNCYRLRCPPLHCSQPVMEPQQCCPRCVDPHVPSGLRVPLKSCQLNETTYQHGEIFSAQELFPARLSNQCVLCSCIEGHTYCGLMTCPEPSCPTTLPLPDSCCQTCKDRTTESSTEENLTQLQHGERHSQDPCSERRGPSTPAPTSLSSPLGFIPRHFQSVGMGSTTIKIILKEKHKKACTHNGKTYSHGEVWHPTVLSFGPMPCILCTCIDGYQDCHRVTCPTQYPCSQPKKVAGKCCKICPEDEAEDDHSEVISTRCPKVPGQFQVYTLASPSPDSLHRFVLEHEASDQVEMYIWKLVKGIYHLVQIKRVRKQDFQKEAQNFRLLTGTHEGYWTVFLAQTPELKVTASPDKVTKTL
The assay is described as follows: co-immunoprecipitation: mCHL2-FLAG mixed with activin A, anti-mCHL2 antiserum, protein A agarose beads, western blot for activin. From the text:
FIG. 12 illustrates the results of Western blot analysis using mCHL2-FLAG proteins. In panel A, mCHL2-FLAG was mixed with BMP5 or activin A, treated with an anti-mCHL2 antiserum, and precipitated with protein A agarose beads. In panel B, mCHL2-FLAG was mixed with BMP2, BMP4, BMP5, BMP6, GDF5 (BMP14), or activin A, treated with an anti-mCHL2 antiserum, and precipitated with protein A agarose beads.

Data on one molecule can be found in US20030158378A1 (Amgen, published 2003).

B1: activin A (ligand, UniProt P08476 311-426, looked up)
chain: GLECDGKVNICCKKQFFVSFKDIGWNDWIIAPSGYHANYCEGECPSHIAGTSGSSLSFHSTVINHYRMRGHSPFANLKSCCVPTKLRPMSMLYYDDGQNIIKKDIQNMIVEECGCS
Turning to B1, the binding result is “no binding”.
